Experimental data: the Human Domainome abundance scans (Beltran et al. 2025)
± gives the uncertainty stated by the source.

B1: Protein maelstrom homolog, residues 3 to 71; numbered along this chain, Q96JY0 (parent)
chain: NRKASRNAYYFFVQEKIPELRRRGLPVARVADAIPYCSSDWALLREEEKEKYAEMAREWRAAQGKDPGP
B2: Receptor-interacting serine/threonine-protein kinase 2, residues 438 to 518; numbered along this chain, O43353 (parent)
chain: QWIQSKREDIVNQMTEACLNQSLDALLSRDLIMKEDYELVSTKPTRTSKVRQLLDTTDIQGEEFAKVIVQKLKDNKQMGLQ

Variants of: B1
Test: abundance fitness (aPCA) (normalised: wild type 0, dead -1); higher = more abundant; growth selection in yeast, the domain comes from the species named
Settings: Homo sapiens

Going from R2T to R29M, the abundance fitness falls from 0.126 ± 0.066 to -0.09 ± 0.09.

Going from Q63Y to G64M, the abundance fitness rises from -0.242 ± 0.16 to -0.008 ± 0.068.

Compared with L43E, G68V is lower in abundance fitness: 0.102 ± 0.05 for the first, -0.376 ± 0.072 for the second.

First: A8D
Second: C37L
The abundance fitness of the first is higher: -0.046 ± 0.1 for the first, -0.244 ± 0.054 for the second.

D32T and A8I are within error of each other in abundance fitness: -0.257 ± 0.2 for the first, -0.27 ± 0.21 for the second.

First: L43P
Second: Q14S
The abundance fitness of the first is lower: -0.477 ± 0.077 for the first, -0.196 ± 0.058 for the second.

Going from K65R to D66H, the abundance fitness rises from -0.037 ± 0.042 to 0.122 ± 0.097.

Q14F and K65T are within error of each other in abundance fitness: -0.299 ± 0.12 for the first, -0.26 ± 0.079 for the second.

First: E54N
Second: K16V
The abundance fitness of the first is higher: -0.125 ± 0.09 for the first, -0.41 ± 0.086 for the second.

L43T and D66Y are within error of each other in abundance fitness: -0.108 ± 0.088 for the first, -0.095 ± 0.072 for the second.

Compared with A53P, G68C is higher in abundance fitness: -0.589 ± 0.13 for the first, -0.12 ± 0.17 for the second.

Compared with V30I, A31Q is higher in abundance fitness: -0.652 ± 0.32 for the first, -0.21 ± 0.11 for the second.

First: A31L
Second: R57K
The abundance fitness of the first is lower: -0.291 ± 0.09 for the first, 0.001 ± 0.13 for the second.

Compared with Y9M, P18Q is lower in abundance fitness: 0.026 ± 0.08 for the first, -0.338 ± 0.094 for the second.

First: G64E
Second: W41A
The abundance fitness of the first is higher: 0.088 ± 0.06 for the first, -0.553 ± 0.075 for the second.

Going from I17Q to E58A, the abundance fitness rises from -0.961 ± 0.2 to -0.086 ± 0.071.

First: P67R
Second: V27E
The abundance fitness of the first is higher: 0.118 ± 0.047 for the first, -0.831 ± 0.15 for the second.

First: F11D
Second: I34N
The abundance fitness of the first is lower: -0.705 ± 0.18 for the first, -0.06 ± 0.15 for the second.

D66F and R57C are within error of each other in abundance fitness: -0.116 ± 0.073 for the first, -0.089 ± 0.15 for the second.

G68E and R57E are within error of each other in abundance fitness: 0.014 ± 0.068 for the first, 0.021 ± 0.097 for the second.

A33V and F12S are within error of each other in abundance fitness: -0.541 ± 0.078 for the first, -0.7 ± 0.12 for the second.

First: L20H
Second: P67F
The abundance fitness of the first is lower: -0.953 ± 0.26 for the first, -0.101 ± 0.083 for the second.

Compared with Y10W, Y10T is lower in abundance fitness: -0.175 ± 0.1 for the first, -0.427 ± 0.096 for the second.

First: S38C
Second: R22A
The abundance fitness of the first is lower: -0.337 ± 0.22 for the first, 0.006 ± 0.063 for the second.

First: A33D
Second: P67H
The abundance fitness of the first is lower: -0.62 ± 0.28 for the first, 0.024 ± 0.11 for the second.

Compared with I17N, Q14V is higher in abundance fitness: -0.797 ± 0.21 for the first, -0.265 ± 0.057 for the second.

E19D and P18F are within error of each other in abundance fitness: -0.093 ± 0.15 for the first, -0.286 ± 0.16 for the second.

First: E19V
Second: Q14R
The abundance fitness of the first is lower: -0.25 ± 0.06 for the first, -0.074 ± 0.056 for the second.

S5M and V30C are within error of each other in abundance fitness: -0.118 ± 0.18 for the first, -0.174 ± 0.093 for the second.

Compared with F12G, R57A is higher in abundance fitness: -0.531 ± 0.064 for the first, 0.05 ± 0.078 for the second.

First: D32C
Second: L44Q
The abundance fitness of the first is lower: -0.735 ± 0.27 for the first, -0.168 ± 0.15 for the second.

First: E54D
Second: A53T
The abundance fitness of the first is higher: 0.133 ± 0.082 for the first, -0.15 ± 0.1 for the second.

First: W41Y
Second: R22L
The abundance fitness of the first is lower: -0.394 ± 0.14 for the first, -0.11 ± 0.065 for the second.

E58K and A42Y are within error of each other in abundance fitness: -0.014 ± 0.1 for the first, -0.101 ± 0.1 for the second.

D66S and A42L are within error of each other in abundance fitness: -0.042 ± 0.065 for the first, -0.082 ± 0.061 for the second.

First: L43F
Second: R29N
The abundance fitness of the first is lower: -0.473 ± 0.26 for the first, 0.105 ± 0.11 for the second.

K16M and E50D are within error of each other in abundance fitness: -0.041 ± 0.11 for the first, -0.232 ± 0.16 for the second.

First: L20K
Second: C37V
The abundance fitness of the first is lower: -0.88 ± 0.16 for the first, -0.137 ± 0.057 for the second.

L44S and Y9Q are within error of each other in abundance fitness: -0.205 ± 0.067 for the first, -0.033 ± 0.11 for the second.

Compared with A8M, R45P is higher in abundance fitness: -0.357 ± 0.061 for the first, 0.147 ± 0.097 for the second.

Going from V13G to Y9H, the abundance fitness rises from -0.797 ± 0.45 to -0.137 ± 0.11.

E54K and E46K are within error of each other in abundance fitness: 0.027 ± 0.076 for the first, 0.012 ± 0.11 for the second.

First: Y9W
Second: Q63E
The abundance fitness of the first is lower: -0.242 ± 0.1 for the first, -0.046 ± 0.062 for the second.

First: K16G
Second: D66P
The abundance fitness of the first is lower: -0.673 ± 0.1 for the first, -0.052 ± 0.17 for the second.

First: R57T
Second: W41V
The abundance fitness of the first is higher: -0.054 ± 0.098 for the first, -0.682 ± 0.071 for the second.

P18M and S39L are within error of each other in abundance fitness: -0.263 ± 0.097 for the first, -0.137 ± 0.061 for the second.

Compared with P18V, R29D is higher in abundance fitness: -0.268 ± 0.057 for the first, 0.148 ± 0.15 for the second.

First: R29V
Second: W41L
The abundance fitness of the first is higher: 0.049 ± 0.062 for the first, -0.941 ± 0.086 for the second.

Going from W41E to L43N, the abundance fitness rises from -0.813 ± 0.1 to 0.252 ± 0.21.

Compared with L43Y, S5Y is lower in abundance fitness: 0.086 ± 0.14 for the first, -0.36 ± 0.28 for the second.

Compared with Q14L, R60T is higher in abundance fitness: -0.079 ± 0.056 for the first, 0.322 ± 0.24 for the second.

C37K and V27W are within error of each other in abundance fitness: -0.719 ± 0.13 for the first, -0.584 ± 0.1 for the second.

First: D66M
Second: L44D
The abundance fitness of the first is higher: 0.051 ± 0.072 for the first, -0.553 ± 0.23 for the second.

E58C and S5L are within error of each other in abundance fitness: -0.245 ± 0.13 for the first, -0.593 ± 0.3 for the second.

K3N and E54I are within error of each other in abundance fitness: -0.001 ± 0.19 for the first, 0.076 ± 0.095 for the second.

S5R and G68M are within error of each other in abundance fitness: -0.228 ± 0.11 for the first, -0.048 ± 0.086 for the second.

Going from R57L to C37F, the abundance fitness falls from 0.003 ± 0.073 to -0.55 ± 0.13.

First: E54Q
Second: D32P
The abundance fitness of the first is higher: -0.147 ± 0.076 for the first, -0.959 ± 0.23 for the second.

P35E and R6Y are within error of each other in abundance fitness: -0.289 ± 0.1 for the first, -0.175 ± 0.34 for the second.

Going from P69C to W41Q, the abundance fitness falls from 0.071 ± 0.17 to -1.1 ± 0.2.

Compared with A31W, Q14E is higher in abundance fitness: -0.286 ± 0.082 for the first, 0.135 ± 0.08 for the second.

L43C and Q63W are within error of each other in abundance fitness: -0.176 ± 0.11 for the first, -0.37 ± 0.091 for the second.

First: A8K
Second: Q63L
The abundance fitness of the first is lower: -0.483 ± 0.096 for the first, -0.321 ± 0.051 for the second.

Y10E and E54A are within error of each other in abundance fitness: -0.065 ± 0.08 for the first, -0.123 ± 0.059 for the second.

Going from P35I to A4G, the abundance fitness rises from -0.524 ± 0.33 to 0.032 ± 0.056.

Going from R45A to Q14P, the abundance fitness falls from -0.001 ± 0.061 to -0.724 ± 0.1.

Compared with G68K, V27P is lower in abundance fitness: -0.025 ± 0.11 for the first, -0.73 ± 0.18 for the second.

Compared with E46V, R45E is higher in abundance fitness: -0.38 ± 0.077 for the first, -0.003 ± 0.07 for the second.

Compared with E54H, E19L is lower in abundance fitness: -0.161 ± 0.092 for the first, -0.412 ± 0.067 for the second.

Going from K65E to S39H, the abundance fitness rises from -0.082 ± 0.078 to 0.109 ± 0.11.

I34T and G68W are within error of each other in abundance fitness: -0.19 ± 0.11 for the first, -0.128 ± 0.098 for the second.

First: A8L
Second: P67A
The abundance fitness of the first is lower: -0.783 ± 0.11 for the first, -0.098 ± 0.069 for the second.

Going from E19C to L20S, the abundance fitness falls from -0.548 ± 0.15 to -0.844 ± 0.11.

Going from G64N to G68S, the abundance fitness falls from 0.214 ± 0.095 to -0.273 ± 0.098.

Compared with I34S, A31S is higher in abundance fitness: -0.229 ± 0.078 for the first, -0.047 ± 0.1 for the second.

First: E54W
Second: Q14D
The abundance fitness of the first is lower: -0.299 ± 0.047 for the first, 0.054 ± 0.098 for the second.

E46C and Q14C are within error of each other in abundance fitness: -0.046 ± 0.1 for the first, -0.148 ± 0.081 for the second.

S38R and P69G are within error of each other in abundance fitness: 0.171 ± 0.17 for the first, 0.392 ± 0.19 for the second.

S39D and A53G are within error of each other in abundance fitness: 0.07 ± 0.16 for the first, -0.106 ± 0.052 for the second.

Variants of: B2
Test: as above
Settings: Homo sapiens

Q1H and Q1L are within error of each other in abundance fitness: -0.398 ± 0.4 for the first, -0.399 ± 0.28 for the second.

Q1R and W2C are within error of each other in abundance fitness: -0.389 ± 0.47 for the first, -0.556 ± 0.18 for the second.

W2D and W2E are within error of each other in abundance fitness: -0.232 ± 0.31 for the first, -0.438 ± 0.11 for the second.

W2G and W2H are within error of each other in abundance fitness: -0.546 ± 0.084 for the first, -0.684 ± 0.24 for the second.

W2I showed an abundance fitness of 0.069 ± 0.43.
